The target of assay [1] is T1, Aβ(pE11-30) peptide (N-terminal pyroglutamate (Aβ position 11)).
T1 construct: Synthesized peptide; Amine-coupled to a CM5 chip for SPR, or adsorbed to the microplate for the direct ELISA
T1 peptide: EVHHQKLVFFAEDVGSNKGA
The assay can be described thus: SPR (Biacore 3000), purified antibody 0.04-10 µg/ml, 30 µl/min for 300 s, CM5 chip with immobilized Aβ(pE11-30); signal taken at the end of the dissociation phase, non-coated flow cell subtracted. The procedure: Then the coupling of peptide followed. At first 10 μg/ml peptide Aβ(pE11-30) in 10 mM potassiumdihydrogenorthophosphate pH 6 was injected with a flow rate of 10 μl/min for 5 min. Because of the low signal rise the peptide was applied again with a higher concentration diluted in a solution with pH 5. 50 μg/ml peptide Aβ(pE11-30) in 10 mM sodium acetate pH 5 was injected with a flow rate of 10 μl/min for 20 min. A mild acid pH was chosen for coupling to provide a pre-concentration of the peptide (positive net charge) at the sensor surface (carboxyl group negative net charge) by electrostatic attraction. The covalent bond of the peptide was formed by the reaction of the two amino acids lysine (at peptide position 16 and 28) with the activated carboxyl group at chip surface. Excess reactive ester groups were deactivated with 1 M ethanolamine pH 8.5 with a flow rate of 10 μl/min for 10 min. Non-immobilized peptides were removed by injection of 0.1 M HCl (3×10 μl) and subsequently the chip was rinsed over night with running buffer. At the end the signal was about 1000 Response Units (RU) whereby the chip surface was saturated with the peptide.
For the measurement of anti Aβ11(pE) antibody concentration a CM5 chip, which was coated with Aβ(pE11-30) was used. The chip surface was saturated with the peptide and the signal was about 1000 Response Units (RU) (see section 1.3.3.1). […]

The target of assay [2] is T2, Aβ(pE11-18)-PEG peptide (reading uncertain).
T2 construct: The PEG attachment is not described further
T2 peptide: [pGlu]VHHQKLV-{PEG}
In words: ITC at 20 °C, peptide titrated into antibody eluted with 0.1 M glycine-HCl pH 2.7. As to the method:
For the ITC experiment, the peptide Aβ(pE11-18)-PEG was used because the hydrophilic PEG group imparts hydrophilic properties and so it was possible to dissolve the peptide directly in ITC buffer. Former experiments with Aβ(pE11-20) could only be performed with 1-2% DMSO, due to the strong hydrophobicity of the peptide it was necessary to dissolve it with DMSO which could have an effect on the ITC binding properties. At first the antibody was dialyzed against ITC buffer (150 mM NaCl, 25 mM Na₂HPO₄, 25 mM KH₂PO₄, 1 mM EDTA, pH=7.1) over night at 4° C. The lyophilised peptide, stored at −20° C., was dissolved in identical ITC buffer pH=7.1 which was used for antibody dialysis. Both antibody and antigen must be in identical solutions, otherwise large heats of dilution will mask the desired observation. Before the ITC experiment, the concentration of antibody was determined by UV/VIS spectroscopy (see section 1.3.1). At first the antibody with e.g. 5.13 μM (see Table 4) was added into the sample cell and the reference cell was filled with distilled water. Then the antigen was injected into the sample cell with e.g. 81.78 μM (see Table 4). The antigen should be generally in twofold excess to the antibody, bearing in mind that an antibody has two binding sites the antigen was in the cell at least in fourfold excess to the antibody. The 30 injections (1×2 μl and 29×10 μl) were made with a 4-min interval between subsequent injections. The measurement of heat of reaction was performed at 20° C. Furthermore the heat of reaction was determined which was only generated by dilution of the antigen through the titration into ITC buffer (pH=7.1). Therefore the antigen was injected into the sample cell filled with ITC buffer. […]
(§1) To characterize the binding of anti Aβ11(pE) antibody at the Aβ(pE11-18)-PEG peptide the method of Isothermal Titration calorimetry (ITC) was used (see section 1.3.4). The antibody which was eluted from protein G column with KSCN-gradient (pH 7.0) and 0.1 M glycine-HCl (pH 2.7) was analyzed.

The target of assay [3] is T2, Aβ(pE11-18)-PEG peptide. The assay can be described thus: ITC at 20 °C, peptide titrated into antibody eluted with 0.1 M glycine-HCl pH 2.7 (KD=1/KA). As to the method: For the ITC experiment, the peptide Aβ(pE11-18)-PEG was used because the hydrophilic PEG group imparts hydrophilic properties and so it was possible to dissolve the peptide directly in ITC buffer. Former experiments with Aβ(pE11-20) could only be performed with 1-2% DMSO, due to the strong hydrophobicity of the peptide it was necessary to dissolve it with DMSO which could have an effect on the ITC binding properties. At first the antibody was dialyzed against ITC buffer (150 mM NaCl, 25 mM Na₂HPO₄, 25 mM KH₂PO₄, 1 mM EDTA, pH=7.1) over night at 4° C. The lyophilised peptide, stored at −20° C., was dissolved in identical ITC buffer pH=7.1 which was used for antibody dialysis. Both antibody and antigen must be in identical solutions, otherwise large heats of dilution will mask the desired observation. Before the ITC experiment, the concentration of antibody was determined by UV/VIS spectroscopy (see section 1.3.1). […] Furthermore the heat of reaction was determined which was only generated by dilution of the antigen through the titration into ITC buffer (pH=7.1). […]
as §1

In assay [4] the target is T3, AβpE(3-40) peptide (N-terminal pyroglutamate (Aβ position 3)).
T3 construct: Immobilized on a CM5 chip at 1830 RU; also called Aβ3(pE); Aβ N3pE-40
The assay can be described thus: SPR, 1 µg/ml antibody over immobilized AβpE(3-40) against immobilized AβpE(11-30). (In SPR one partner is held on a chip, and binding of the other changes the refractive index at the surface.)

For assay [5], the target named is T4, CCL8 (known as MCP-2) pyroglutamate-peptide (UniProt P80075 24-99, limits assumed, N-terminal pyroglutamate).
T4 sequence (peptide, looked up): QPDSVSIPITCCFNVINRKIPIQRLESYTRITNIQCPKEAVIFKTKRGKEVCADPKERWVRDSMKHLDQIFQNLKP
In words: SPR, peptide immobilized on CM5 chip (data not shown).

For assay [6], the target named is T5, gonadoliberin pyroglutamate-peptide (UniProt P01148 24-33, N-terminal pyroglutamate).
T5 peptide (looked up): QHWSYGLRPG
Described as above.

The target in assay [7] is neurotensin pyroglutamate-peptide (UniProt P30990 151-163, N-terminal pyroglutamate). Described as above.
In assay [8] the target is T6, big gastrin pyroglutamate-peptide (UniProt P01350 59-92, N-terminal pyroglutamate).
T6 peptide (looked up): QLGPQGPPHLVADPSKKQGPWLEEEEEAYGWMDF
The assay is described as above.

Assay [9] addresses CCL2 (known as MCP-1) pyroglutamate-peptide (UniProt P13500 24-99, limits assumed, N-terminal pyroglutamate). The description is as above.
For assay [10], the target named is T7, orexin A pyroglutamate-peptide (UniProt O43612 34-66, N-terminal pyroglutamate).
T7 peptide (looked up): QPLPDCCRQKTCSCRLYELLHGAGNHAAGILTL
Described as above.

The values that follow come from patent publication US20140255414A1 (PROBIODRUG, published 2014).

Usually EC50 (read off the curve) stands for the midpoint of the concentration-response curve. Lower therefore signals an effect from little substance. What is called Kd is the free concentration of one partner at which half of the binding sites on the other are occupied at equilibrium, for simple one-to-one binding. High values mean weaker binding, low ones tighter binding.

Square brackets hold non-standard residues; d marks the D form. pGlu = O=C1CC[C@@H](C(=O)O)N1; PEG = not defined here

Chain of CCL2 (known as MCP-1) pyroglutamate-peptide (P13500 24-99 limits assumed): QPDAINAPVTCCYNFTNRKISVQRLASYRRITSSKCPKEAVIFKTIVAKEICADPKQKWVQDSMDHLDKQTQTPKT
T3 sequence (peptide, as listed by the source): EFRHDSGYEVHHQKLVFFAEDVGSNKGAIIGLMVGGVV

B1: monoclonal mouse anti Aβ11(pE) antibody Aβ 13-11-6 (clone 13), Deposit No. DSM ACC 3100 (antibody, V domains shown)
VH: QVQLQQPGTELVKPGASVKLSCKASGFTFTSYWMHWVRQRPGQGLEWIGEINPSNGRTNYNEKFKSKATLTVDKSSSTAYMQLSSLTSEDSEVYYCARGDLAWDWSAYWGQGTLVTVSA
VL: DIVMSQSPSSLAVSAGEKVTMSCKSSQSLFYSRTRKNYLAWYQQKPGQSPKLLIYWASTRESGVPDRFTGSGSGTDFTLTISSVQAEDLAVYYCKQSYNLWSFGGGTKLEIKR
notes: The KSCN-eluted and glycine-HCl-eluted preparations are the same molecule; also called pEVHH-59025 13-11-6; mAb mouse anti Aβ11(pE)
As to B1, the “EC50 (read off the curve)” value in [1] was approximately 1 µg/mL. Further, in [2], the “-TΔS” value was -1.36 kcal/mol. The molecule also came in with a Ka in assay [2] of 9.5e+06 M⁻¹. Besides, the “Stoichiometry (N)” value in [2] worked out at 1.01. Further, in assay [3], binding was characterised by a dissociation constant (Kd) of 105 nM. Moreover, the “cross reactivity relative to AβpE(11-30)” value in assay [4] was found to be 4 magnitudes lower. Besides, the binding result in assay [5], in assay [6], in assay [7], in assay [8], in assay [9] and in assay [10] was “no binding (tested: 1 µg/ml antibody)” in each case.
